Assay: soluble on expression in E. coli; label from the status in PepcDB or PDB records

Sequence | soluble on expression in E. coli
ASQFFFNQRTHLVSDVIDGAIIASPWNNLARLESDPAIRIVVRRDLNKNNVAVISGGGSGHEPAHVGFIGKGMLTAAVCGDVFASPSVDAVLTAIQAVTGEAGCLLIVKNYTGDRLNFGLAAEKARRLGYNVEMLIVGDDISLPDNKHPRGIAGTILVHKIAGYFAERGYNLATVLREAQYAASNTFSLGVALSSCHLPQETDAAPRHHPGHAELGMGIHGEPGASVIDTQNSAQVVNLMVDKLLAALPETGRLAVMINNLGGVSVAEMAIITRELASSPLHSRIDWLIGPASLVTALDMKGFSLTAIVLEESIEKALLTEVETSNWPTPVPPREITCVVSSHASARVEFQPSANALVAGIVELVTATLSDLETHLNALDAKVGDGDTGSTFAAAAREIASLLHRQQLPLNNLATLFALIGERLTVVMGGSSGVLMSIFFTAAGQKLEQGANVVEALNTGLAQMKFYGGADEGDRTMIDALQPALTSLLAQPKNLQAAFDAAQAGAERTCLSSKANAGRASYLSSESLLGNMDPGAQALAMVFKALAESELG | soluble
MSVIIVGGGMAGATLALAISQFSHGTLPVHLIEAKAPEADGHPGFDARAIALAAGTCQQLARIGVWLAISDCATAINTVHVSDRGHAGFVTLDAQDYSLAALGHVAELHDIGLRLFALLRKAPGVTLHCPERVASVSRTQQQVNVTLENGNVIAGSVLVAANGTHSALASACGVDWHQEPYEQLAVIANVATAIPHQGRAFERFTPNGPLAMLPMSHGRCSLVWCHPLDQRDEVLSWSDAQFCHALQAAFGWRLGRITQAGKRSAYPLALTTAAKVFTHRTVVVGNAAQTLHPIAGQGFNLGLRDVMSLAETLVAAQDAGEDIGAWHVLSRYQQRRQVDRDTTIGVTNGLVHLFANRWAPLVIGRNIGLMAMELLPPARDALAQRTLGWVARLEHHHHHH | soluble
MTGMTNVTKLASEPSGQEFLVFTLGDEEYGIDILKVQEIRGYDQVTRIANTPAFIKGVTNLRGVIVPIVDLRIKFSQVDVDYNDNTVVIVLNLGQRVVGIVVDGVSDVLSLTAEQIRPAPEFAVTLSTEYLTGLGALGDRMLILVNIEKLLNSEEMALLDSAASEVA | soluble
VAVNNISNLINSRIRLTGISSGLDTDAIIEQLMSVERAKVDKIKQEKQILEWKRDIYRDIINKLRSITDEYFNVLKPKTNFTSQSAFTSFKISSSNESVVTVTANASAASKVHSITVHSLASAAKIVGTSGLVDGIKGSNAVNTLSLQGKEINVTLDGVTKTIALEDYTSLSDLETKLESALAKAFGTGKIDVVTTGGSIEFKCLLNGSTLSISDTANNYISSLGFSNGQKNFITGNSDVNSDFSLYTDGSFKITVGNGTAQTINISDATSIDDLVAKIQQAIDSNSELSGKVHVSNDGSKLTFISVSGETVKLTSGDSNNVLDKLGFSDGATITATSSTVIDLSGNEKGKTFIININGVDKIIEIDKDYNDLDELASYIQNQLGGTVNVTKDASGSRLVFSTGGADRLIFKKGPEDGLEKLGFTANDNRSNRISLTTKLDSLSTIFKNDLNIADPDANVVFTINGQTIDVGKTYANATLSDVMNAINSSSAGVKITYDSLNDRFIMESKTMGATSEIELTDTDPANGLLKAMGLIGGTYTAGTDAEFDLDGVTGMKRSTNEFTIEGVTYSLKGVSSEPVKIDVKADIDAVVENIKNFVNSYNEMLAKINSVLTEERYRDYLPLTDDQKKAMSEDDIKLWEQKAKSGLLRSDSILENIVTNLRRALYDKVEGCSLSLYQIGITTGSYQDKGKLVIDEEKLRAALTDNYDAVVQLFTQGSQYTYSEALNDPNKRAVRYKEAGIAQRIYDILQDNIRITRNANGKKGILLEKAGIAGDLTEYDNLIVNEIKAKETLIDEMLVKIYKKEEYYYSKFAAMEKMLDAMNSQSMWLTQQFSNYY | soluble
MSVPSSLSQSAINANSHGGPALSLPLPLHAAHNQLLNAKLQATAVGPKDLRSAMGEGGGPEPGPANAKWLKEGQNQLRRAATAHRDQNRNVTLTLAEEASQEPEMAPLGPKGLIHLYSELELSAHNAANRGLRGPGLIISTQEQGPDEGEEKAAGEAEEEEEDDDDEEEEEDLSSPPGLPEPLESVEAPPRPQALTDGPREHSKSASLLFGMRNSAASDEDSSWATLSQGSPSYGSPEDTDSFWNPNAFETDSDLPAGWMRVQDTSGTYYWHIPTGTTQWEPPGRASPSQGSSPQEESQLTWTGFAHGEGFEDGEFWKDEPSDEAPMELGLKEPEEGTLTFPAQSLSPEPLPQEEEKLPPRNTNPGIKCFAVRSLGWVEMTEEELAPGRSSVAVNNCIRQLSYHKNNLHDPMSGGWGEGKDLLLQLEDETLKLVEPQSQALLHAQPIISIRVWGVGRDSGRDFAYVARDKLTQMLKCHVFRCEAPAKNIATSLHEICSKIMAERRNARCLVNGLSLDHSKLVDVPFQVEFPAPKNELVQKFQVYYLGNVPVAKPVGVDVINGALESVLSSSSREQWTPSHVSVAPATLTILHQQTEAVLGECRVRFLSFLAVGRDVHTFAFIMAAGPASFCCHMFWCEPNAASLSEAVQAACMLRYQKCLDARSQASTSCLPAPPAESVARRVGWTVRRGVQSLWGSLKPKRLGAHTP | soluble
MDSIYRDAGYDVLKVSAKTGEGIDELVDYLEGFICILAGPSGVGKSSILSRLTGEELRTQEVSEKTERGRHTTTGVRLIPFGKGSFVGDTPGFSKVEATMFVKPREVRNYFREFLRYQCKYPDCTHTNEPGCAVKEAVKNGEISCERYKSYLKIIKVYLEEIKELCREDLEHHHHHH | not soluble
MYCKPHRPGNTPQVPDNKGKCTRLVDYLSKESQVERPYYDNFFSQQKDYVIPLTVKNHIDNNHRTLKSNDDKFYMLSINPSGDEQRHLIERVTGRKVGEFSELTPGEQESVLAQMKKFTRECMDEYARNFYREKIKSGDDLVWYGRVETERHYKNDDPEVKAGRVKAGDKKPGLQLHVHVIVSRMDRTQTVSLSPLSKSRGNRQILEGREVVVGFDRSQWSSRCASRFNQSYDYFPNYYSRDESLRKYSENWQAKNELKNEAVSKLKQEVLKGELKEERRLYANTFRIYRFVVNPRKAIIQELKRLGTDLLSGRDL | not soluble
MGHHHHHHGSDSEVNQEAKPEVKPEVKPETHINLKVSDGSSEIFFKIKKTTPLRRLMEAFAKRQGKEMDSLRFLYDGIRIQADQAPEDLDMEDNDIIEAHREQIGGDSEVNQEAKPEVKPEVKPETHINLKVSDGSSEIFFKIKKTTPLRRLMEAFAKRQGKEMDSLRFLYDGIRIQADQAPEDLDMEDNDIIEAHREQIGGMFMAKITGSVVSTKKEDSLTGKKLMIVQPIDANGEHVRSEEVACDSVGAGIGEYVLVARGNAARSVFAEPNSAIDSAIIAIVDSFDK | soluble
MGSDKIHHHHHHMWQAISRLLEEHHGTADIQEHRELPGGEIHPAWYVRYGEHDVFVKCDSREMLAKFTAEADQLHLLSRSNTVRVPKVYGVGSSRDYSFLLLQYLPVKPLDAHSAWCLGEQLARLHQWSDQPQFGLDFDNDLSTTPQPNSWQRRWATFFAEQRIGWQLQLAAEKGMHFGHIETLIARVDERLAGHQPQPSLLHGDLWPDNCANSQDGGYLFDPACYWGDRECDLAMLPRYPALPAQIYDGYQSVWPLDKDFIDRQPIYQIYYLLNRANLFGGKNIVEAQQLIERQLLS | not soluble
GHHHHHHMTTQLEQAWELAKQRFAAVGIDVEEALRQLDRLPVSMHCWQGDDVSGFENPEGSLTGGIQATGNYPGKARNASELRADLEQAMRLIPGPKRLNLHAIYLESDTPVSRDQIKPEHFKNWVEWAKANQLGLDFNPSCFSHPLSADGFTLSHADDSIRQFWIDHCKASRRVSAYFGEQLGTPSVMNIWIPDGMKDITVDRLAPRQRLLAALDEVISEKLNPAHHIDAVESKLFGIGAESYTVGSNEFYMGYATSRQTALCLDAGHFHPTEVISDKISAAMLYVPQLLLHVSRPVRWDSDHVVLLDDETQAIASEIVRHDLFDRVHIGLDFFDASINRIAAWVIGTRNMKKALLRALLEPTAELRKLEAPGDYTARLALLEEQKSLPWQAVWEMYCQRHDTPAGSEWLESVRAYEKEILSRRG | soluble
MALTDRLLDAWYKGHPALTLLRPLESLYRRVVDGKRAKFLAGEGDIYRAPVPVIVVGNITIGGTGKTPLILWMIEHCQRKGLRVGVVSRGYGAKPPSLPWRVQPDQSASEAGDEPLLIVQRSGVPLMIDPDRSRAVQALLAAEPLDLILSDDGLQHYRLARDLELVLIDAARGLGNRRCLPAGPLREPVERLSSVDALLYNGATADRDDGYAFTLKPSALINLRSGERQPVSYFPAGQALHAVAGIGNPQRFFNTLEGLHWRPVTHAFADHALYSVQALTFTPALPLVMTEKDAVKCRAFAADDWWYLAVDAVPSDAFVGWFDEQLLRLSPLEHHHHHH | not soluble
MVEARSRHEFVALQLRQRIMQRQYAVGESLPSESMLCAEFEVSRGPVRQALATLKNEGLIQLSQGKPAVVRSHDITQTLDTFTPFSQWARRTGRVAGSRTLEISRRRVSEPAASALGSAPDDFVVEVLRVRLLDGEPTMIERSTFTDRVGSLLFDFDIDTGSITDYLTSRGVRFESMEHVLDAVAATGVDAENLRIDPGSPLLRERRTSRDQNGDTFEYADDRYRPDLVAFSIVNARTIDPRLPSDDGNGA | not soluble
MVNIDKIIGINNLPLANGLGEYAKRMEAVLGKNILSLVMDKRYKDMDYAGRKIYGYYPPITNGYLLNVYLSRSILKKYYKGKFPHLLSPFFYLGSEYESKSIITIHDTYYKWEKNKMQRLSKKIVRKYRSFKNIISISEQTKNDLIADGYDADNISVIYNYIDPIFRKLESINKDEKTVLTVGDGIHKNNILVNKIVNGRYYHIHIGKEVRADENYSGISTEELVKLYNRASVLIRLSDYEGFGYPPLEALFCGTPAVVSDIAVFRELLGDSAVYVKKDEVSILDGIEYAIQNRKEMLNRFESKIKSRYTKERFISNMIKYYKDL | soluble
MMPLNRQSTTPLYIQLYQQMRDDYDATQANHQLWSIRKMAQNLGVSKTTVEQAYDQLLAEGYVYTVPGSGYFYRDRTHWPAAKQALETVPQPTKPRAFTYDFRYGVTQLLSPSWNAWKRAVRLALRQTEQQPTAVYPDAQGLPALRENLVRFLKTTRGVRCTADQIVITSGAKAGLSILLSILPRGTVGIENPGYRGLSELAASYGQTAVPIRVTEDGLDLTQVRARNPQIIYTTPGHQFPLGVVLPIEKRLALLQWAGTQHLIIEDDYDSEYRYSAHPLPALQSLATANQVAYLGTFSRGIDPTLRMGYLVLPPQLVATYHQRYQYRAEMVAGLLQQAMANYFEDGAYYRHLSRNRAANRQKYRVLCHQLAQTKQIRPIATGAGVHLVVQIPGIAQAKLLEALEQQQVRIYPLSSNWRDMPTTDYYLLGFAGLTLSELTTGVKRLVQVCEQLVR | not soluble
MAEIQFSKGVAETVVPEVRLSKSKNGQSGMAKFYFLEPTILAKESTDDITGMYLIDDEGEIITREVKGKFINGRPTAIEATVILNSQPEWDRFMRFMERYGAENGLGFSKSELEHHHHHH | soluble
MGSDKIHHHHHHMRAYDVILKKRNGEKLSREEIEFMVGGYVKGEIPDYQMAAFLMAVYFRHLDEEETYYFTETMMRSGEVLDLSEIPGTKVDKHSTGGVGDKTTLVVAPLVASAGVPVAKMSGRALGHTGGTIDKLESIPGFRTELSLEEFIKNVKKYGIAIVGQTGNLVPADKKIYALRDATATVDEISLIASSIMSKKLAGGSDAFVLDVKFGTGAFMKGFEDAKKLAFLMLRIAQQHGKKAVAVLSNMDQPLGKAVGNSLEVIEAIETLKGNGPEDLKELSLTLGALMLELAGVADFEEGKKILQEKLETGEALDKFRLLVKAQGGNERVVDDPWRVLPVAEQVVEFSAAREGFVSKIDAEKVGIASMMLGAGRKKKEDRIDHSVGIIVEKKLGDSVKKGEAIARLFVSDRSDVESALKLLKEAYVISDSPSEPPRVVEEVIK | not soluble
MSLRKFKSILLIDDDETSNFISEVIIKKLGITETISTVKNGVEALNFVSNNCTINCAPTCPQIIFLDLHMPVMDGFDFLKELKKQMPLYTQKFKIFVLSSSNNPADITKTKDFDVEGYIVKPLSQEKISMLLEDVAEGHHHHHH | not soluble

— the DeepSol protein solubility set
